Measured values taken from patent publication US20190276511A1 (BIONTECH RNA PHARMACEUTICALS, published 2019).
Read-outs that look alike come from different tables or passages of the source.

T1: OX40-Fc (human, UniProt P43489 29-214)
T1 construct: extracellular domain; hinge included for covalent assembly; also called OX40 receptor-Fc fusion protein; not shown: human Fc gamma 1 region including the hinge region
T1 sequence (looked up): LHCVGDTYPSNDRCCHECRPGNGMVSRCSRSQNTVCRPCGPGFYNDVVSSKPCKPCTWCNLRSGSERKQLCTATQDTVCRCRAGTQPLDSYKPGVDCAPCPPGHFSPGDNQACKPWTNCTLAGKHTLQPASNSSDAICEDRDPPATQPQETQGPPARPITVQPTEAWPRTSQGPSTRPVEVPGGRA

T2: CD27-Fc (human, UniProt P26842 20-191)
T2 construct: extracellular domain; hinge included for covalent assembly; also called CD27 receptor-Fc fusion protein; not shown: human Fc gamma 1 region including the hinge region
T2 sequence (looked up): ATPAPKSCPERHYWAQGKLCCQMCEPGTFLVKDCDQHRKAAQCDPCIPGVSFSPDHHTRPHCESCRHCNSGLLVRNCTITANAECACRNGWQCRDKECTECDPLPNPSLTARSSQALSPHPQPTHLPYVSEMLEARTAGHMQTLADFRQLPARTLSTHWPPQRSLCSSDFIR

T3: OX40 receptor on cells (human, UniProt P43489 29-277)
T3 sequence (looked up): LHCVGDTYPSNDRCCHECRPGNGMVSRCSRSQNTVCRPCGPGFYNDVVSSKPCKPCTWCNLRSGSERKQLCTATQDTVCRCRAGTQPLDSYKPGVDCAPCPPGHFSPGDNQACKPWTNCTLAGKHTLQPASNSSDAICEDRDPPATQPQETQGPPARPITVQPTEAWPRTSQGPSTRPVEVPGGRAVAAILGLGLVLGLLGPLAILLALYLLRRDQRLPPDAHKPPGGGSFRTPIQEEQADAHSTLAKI


Columns and labels:
4-1BB-Fc = target: T4, 4-1BB-Fc (human, UniProt Q07011 24-186); experiment: ELISA, coated receptor-Fc
T4 construct: extracellular domain; hinge included for covalent assembly; also called 4-1BB receptor-Fc fusion protein; not shown: human Fc gamma 1 region including the hinge region

OX40-Fc = target: T1, OX40-Fc; experiment: ELISA, coated receptor-Fc
CD40 receptor on cells [1] = target: T5, CD40 receptor on cells (human, UniProt P25942 21-277); experiment: cell-based or functional assay
T5 sequence (P25942 21-277): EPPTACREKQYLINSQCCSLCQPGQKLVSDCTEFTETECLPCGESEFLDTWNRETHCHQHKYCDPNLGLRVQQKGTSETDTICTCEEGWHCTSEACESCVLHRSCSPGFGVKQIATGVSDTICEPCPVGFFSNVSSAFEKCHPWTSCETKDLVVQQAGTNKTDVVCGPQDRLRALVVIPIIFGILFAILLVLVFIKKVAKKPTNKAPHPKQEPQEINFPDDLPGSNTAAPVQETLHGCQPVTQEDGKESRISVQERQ

CD40-Fc [2] = target: T6, CD40-Fc (human, UniProt P25942 21-193); experiment: ELISA, coated receptor-Fc
T6 construct: extracellular domain; hinge included for covalent assembly; also called CD40 receptor-Fc fusion protein; not shown: human Fc gamma 1 region including the hinge region
T6 sequence (P25942 21-193 limits assumed): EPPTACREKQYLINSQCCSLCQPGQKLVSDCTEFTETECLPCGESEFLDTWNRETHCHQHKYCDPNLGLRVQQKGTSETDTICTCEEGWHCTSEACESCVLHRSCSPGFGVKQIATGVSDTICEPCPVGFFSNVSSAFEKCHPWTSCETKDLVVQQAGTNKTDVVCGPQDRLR
Procedure: (§1) Receptor binding of the Duokines was analyzed by ELISA using fusion proteins of the extracellular region of CD40, CD27, 4-1BB and OX40, respectively, with the human Fcγ1 region including the hinge region for covalent assembly (CD40-Fc, CD27-Fc, 4-1BB-Fc, OX40-Fc). Receptor-Fc fusion proteins (200 ng/well) were coated overnight at 4° C. and remaining binding sites were blocked with PBS, 2% skimmed milk powder (2% MPBS).

CD27-Fc [3] = target: T2, CD27-Fc; experiment: ELISA, coated receptor-Fc
Procedure: as §1

CD40-Fc [4] = target: T6, CD40-Fc; experiment: ELISA, coated receptor-Fc; remark: listed apart in the source
OX40 receptor on cells = target: T3, OX40 receptor on cells; experiment: cell-based or functional assay
CD27-Fc [5] = target: T2, CD27-Fc; experiment: ELISA, coated receptor-Fc; remark: listed apart in the source
Procedure: as §1, with “of the single-chain Duokines was” for “of the Duokines was”, “(2% MPBS). […] The interactions between scDuokine and receptor were dose-dependent with EC₅₀ values in the low nanomolar ranges (FIG. 11 AB, Tab. 2).” for “(2% MPBS).”

CD40 receptor on cells [6] = target: T5, CD40 receptor on cells; experiment: cell-based or functional assay; remark: listed apart in the source
CD40-Fc [7] = target: T6, CD40-Fc; experiment: ELISA, coated receptor-Fc; remark: listed apart in the source
Procedure: as §1, with “of the single-chain Duokines was” for “of the Duokines was”, “(2% MPBS). […] The interactions between scDuokine and receptor were dose-dependent with EC₅₀ values in the low nanomolar ranges (FIG. 11 AB, Tab. 2).” for “(2% MPBS).”

binding result (4-1BB-Fc)	binding result (OX40-Fc)	Receptor activation (EC50, nM) (CD40 receptor on cells [1]) [nM]	EC50 (CD40-Fc [2]) [nM]	EC50 (CD27-Fc [3]) [nM]	binding result (CD40-Fc [4])	Receptor activation (EC50, nM) (OX40 receptor on cells) [nM]	EC50 (CD27-Fc [5]) [nM]	Receptor activation (EC50, nM) (CD40 receptor on cells [6]) [nM]	EC50 (CD40-Fc [7]) [nM]	Binder
no binding (tested: 100 nM (FIG. 4))	no binding (tested: 100 nM (FIG. 4))	2.99	3.31	5.9						CD27L-CD40L (ligand, Duokine from HEK293, FLAG-purified; VH leader left out; homotrimer by SEC; also called Duokine CD27L-CD40L; not shown: N-terminal FLAG tag) SLGWDVAELQLNHTGPQQDPRLYWQGGPALGRSFLHGPELDKGQLRIHRDGIYMVHIQVTLAICSSTTASRHHPTTLAVGICSPASRSISLLRLSFHQGCTIASQRLTPLARGDTLCTNLTGTLLPSRNTDETFFGVQWVRPGGGGSGGGGSGGGGSGDQNPQIAAHVISEASSKTTSVLQWAEKGYYTMSNNLVTLENGKQLTVKRQGLYYIYAQVTFCSNREASSQAPFIASLCLKSPGRFERILLRAANTHSSAKPCGQQSIHLGGVFELQPGASVFVNVTDPSQVSHGTGFTSFGLLKL
no binding (tested: 100 nM (FIG. 10))					no binding (tested: 100 nM (FIG. 10))	1.27	4.62			scOX40L-scCD27L (ligand, scDuokine from HEK293, FLAG-purified; VH leader left out; also called single-chain Duokine scOX40L-scCD27L; not shown: N-terminal FLAG tag) QVSHRYPRIQSIKVQFTEYKKEKGFILTSQKEDEIMKVQNNSVIINCDGFYLISLKGYFSQEVNISLHYQKDEEPLFQLKKVRSVNSLMVASLTYKDKVYLNVTTDNTSLDDFHVNGGELILIHQNPGEFCVLGGGSGGGQVSHRYPRIQSIKVQFTEYKKEKGFILTSQKEDEIMKVQNNSVIINCDGFYLISLKGYFSQEVNISLHYQKDEEPLFQLKKVRSVNSLMVASLTYKDKVYLNVTTDNTSLDDFHVNGGELILIHQNPGEFCVLGGGSGGGQVSHRYPRIQSIKVQFTEYKKEKGFILTSQKEDEIMKVQNNSVIINCDGFYLISLKGYFSQEVNISLHYQKDEEPLFQLKKVRSVNSLMVASLTYKDKVYLNVTTDNTSLDDFHVNGGELILIHQNPGEFCVLGGGGSGGGTGGGGSSLGWDVAELQLNHTGPQQDPRLYWQGGPALGRSFLHGPELDKGQLRIHRDGIYMVHIQVTLAICSSTTASRHHPTTLAVGICSPASRSISLLRLSFHQGCTIASQRLTPLARGDTLCTNLTGTLLPSRNTDETFFGVQWVRPGGGSGGGSLGWDVAELQLNHTGPQQDPRLYWQGGPALGRSFLHGPELDKGQLRIHRDGIYMVHIQVTLAICSSTTASRHHPTTLAVGICSPASRSISLLRLSFHQGCTIASQRLTPLARGDTLCTNLTGTLLPSRNTDETFFGVQWVRPGGGSGGGSLGWDVAELQLNHTGPQQDPRLYWQGGPALGRSFLHGPELDKGQLRIHRDGIYMVHIQVTLAICSSTTASRHHPTTLAVGICSPASRSISLLRLSFHQGCTIASQRLTPLARGDTLCTNLTGTLLPSRNTDETFFGVQWVRP
no binding (tested: 100 nM (FIG. 10))	no binding (tested: 100 nM (FIG. 10))						3.3	3.7	8.04	scCD27L-scCD40L (ligand, scDuokine from HEK293, FLAG-purified; VH leader left out; also called single-chain Duokine scCD27L-scCD40L; not shown: N-terminal FLAG tag) SLGWDVAELQLNHTGPQQDPRLYWQGGPALGRSFLHGPELDKGQLRIHRDGIYMVHIQVTLAICSSTTASRHHPTTLAVGICSPASRSISLLRLSFHQGCTIASQRLTPLARGDTLCTNLTGTLLPSRNTDETFFGVQWVRPGGGSGGGSLGWDVAELQLNHTGPQQDPRLYWQGGPALGRSFLHGPELDKGQLRIHRDGIYMVHIQVTLAICSSTTASRHHPTTLAVGICSPASRSISLLRLSFHQGCTIASQRLTPLARGDTLCTNLTGTLLPSRNTDETFFGVQWVRPGGGSGGGSLGWDVAELQLNHTGPQQDPRLYWQGGPALGRSFLHGPELDKGQLRIHRDGIYMVHIQVTLAICSSTTASRHHPTTLAVGICSPASRSISLLRLSFHQGCTIASQRLTPLARGDTLCTNLTGTLLPSRNTDETFFGVQWVRPGGGGSGGGTGGGGSGDQNPQIAAHVISEASSKTTSVLQWAEKGYYTMSNNLVTLENGKQLTVKRQGLYYIYAQVTFCSNREASSQAPFIASLCLKSPGRFERILLRAANTHSSAKPCGQQSIHLGGVFELQPGASVFVNVTDPSQVSHGTGFTSFGLLKLGGGSGGGGDQNPQIAAHVISEASSKTTSVLQWAEKGYYTMSNNLVTLENGKQLTVKRQGLYYIYAQVTFCSNREASSQAPFIASLCLKSPGRFERILLRAANTHSSAKPCGQQSIHLGGVFELQPGASVFVNVTDPSQVSHGTGFTSFGLLKLGGGSGGGGDQNPQIAAHVISEASSKTTSVLQWAEKGYYTMSNNLVTLENGKQLTVKRQGLYYIYAQVTFCSNREASSQAPFIASLCLKSPGRFERILLRAANTHSSAKPCGQQSIHLGGVFELQPGASVFVNVTDPSQVSHGTGFTSFGLLKL
